The values that follow come from patent publication US20090306338A1 (TRUSTEES OF TUFTS COLLEGE, published 2009).

Usually IC50 stands for the concentration that inhibits the measured activity by half. A low value points to inhibition by little substance.

Square brackets hold non-standard residues; d marks the D form. Ends that are not written are not given here. Asp(3,3-Me2) = CC(C)(C(=O)O)[C@H](N)C(=O)O

Experiment [1] concerns the target human GLP-1 receptor (human) (UniProt P43220). In words: cell-based or functional assay.
Experiment [2] has the same target.
Experiment [3] deals with T1, human GLP-1 receptor (human, UniProt P43220 24-463).
Experiment [4] has as its target T1, human GLP-1 receptor. Kind of experiment: cell-based or functional assay.
The target of experiment [5] is T1, human GLP-1 receptor. In words: cell-based or functional assay. The source holds these as a separate data set.

human GLP-1 receptor (human), sequence (P43220 24-463): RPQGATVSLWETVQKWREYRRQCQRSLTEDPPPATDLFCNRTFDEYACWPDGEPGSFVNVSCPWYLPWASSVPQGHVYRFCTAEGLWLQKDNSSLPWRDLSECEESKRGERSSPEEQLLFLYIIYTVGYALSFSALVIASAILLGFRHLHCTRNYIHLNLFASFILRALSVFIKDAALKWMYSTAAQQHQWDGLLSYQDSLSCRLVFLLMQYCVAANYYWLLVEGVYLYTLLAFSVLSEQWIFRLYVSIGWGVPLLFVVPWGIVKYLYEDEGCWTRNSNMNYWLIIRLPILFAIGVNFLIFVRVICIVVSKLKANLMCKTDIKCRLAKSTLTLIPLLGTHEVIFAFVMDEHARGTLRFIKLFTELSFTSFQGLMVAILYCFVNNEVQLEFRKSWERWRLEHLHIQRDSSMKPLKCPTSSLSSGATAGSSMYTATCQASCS

With Exendin-4 (peptide), in experiment [1], the EC50 for receptor activation (cAMP) was in the range of 0.1 to 0.5 nM.

“Exendin-4 (peptide; other documents disagree on this pair)”: in experiment [2], the IC50 is 0.4 nM. As for HA[Asp(3,3-Me2)]GTFTSDVSSYLEGQAAKEFIAWLVKGRPSSGAPPPS (ends and bridges not checked) [P1732], in the experiment with human GLP-1 receptor [3], it took 2.5 nM to reach half-maximal inhibition (IC50). Besides, the “EC50 for receptor activation (cAMP)” value in the experiment with human GLP-1 receptor [4] lay within 0.4 to 1.1 nM. The “EC50 (nM), cAMP production in COS-7 cells expressing the human GLP-1 receptor” value with human GLP-1 receptor [5] was 0.64 nM.
